Results from patent publication US7582427B2, “Method of estimating drug metabolic activity by analyzing mutations in glucuronosyl transferase gene” (National University Corporation Shiga University of Medical …, priority 2002, dated 2009).
Substitutions are numbered along the chain they refer to. Names and notes keep the numbering of the source.

B1: Y486D (homozygous): recombinant UGT1A1 molecule with Y486D mutation (exon 5), tyrosine replaced with aspartic acid at position 486 (protein, UniProt P22309 26-533, looked up, variant Y486D)
UDP-glucuronosyltransferase …: HAGKILLIPVDGSHWLSMLGAIQQLQQRGHEIVVLAPDASLYIRDGAFYTLKTYPVPFQREDVKESFVSLGHNVFENDSFLQRVIKTYKKIKKDSAMLLSGCSHLLHNKELMASLAESSFDVMLTDPFLPCSPIVAQYLSLPTVFFLHALPCSLEFEATQCPNPFSYVPRPLSSHSDHMTFLQRVKNMLIAFSQNFLCDVVYSPYATLASEFLQREVTVQDLLSSASVWLFRSDFVKDYPRPIMPNMVFVGGINCLHQNPLSQEFEAYINASGEHGIVVFSLGSMVSEIPEKKAMAIADALGKIPQTVLWRYTGTRPSNLANNTILVKWLPQNDLLGHPMTRAFITHAGSHGVYESICNGVPMVMMPLFGDQMDNAKRMETKGAGVTLNVLEMTSEDLENALKAVINDKSYKENIMRLSSLHKDRPVEPLDLAVFWVEFVMRHKGAPHLRPAAHDLTWYQDHSLDVIGFLLAVVLTVAFITFKCCAYGYRKCLGKKGRVKKAHKSKTH
modifications: homozygous
B2: P229Q (heterozygous): recombinant UGT1A1 molecule corresponding to heterozygous P229Q mutation (protein, UniProt P22309 26-533, looked up, variant P229Q)
UDP-glucuronosyltransferase …: B1 UDP-glucuronosyltransferase … with P204Q, D461Y
modifications: heterozygous
notes: recombinant UGT1A1 molecule corresponding to heterozygous P229Q mutation
B3: Y486D (heterozygous): recombinant UGT1A1 molecule corresponding to heterozygous Y486D mutation (protein, UniProt P22309 26-533, looked up, variant Y486D)
UDP-glucuronosyltransferase …: B1 UDP-glucuronosyltransferase …
modifications: heterozygous
notes: recombinant UGT1A1 molecule corresponding to heterozygous Y486D mutation

Assays:
UGT1A1 [1] = target: T1, UGT1A1 (Homo sapiens, UniProt P22309, Y486D); conditions: fraction of normal enzyme activity, background report; cited from earlier work
T1 sequence (P22309 26-533 Y486D): B1 UDP-glucuronosyltransferase …

UGT1A1 [2] = target: T1, UGT1A1; experiment: Enzyme kinetics of glucuronidation of 2-amino-5-nitro-4-trifluoromethylphenol by UGT1A1, normal versus Y486D; format: biochemical
Text: 2-amino-5-nitro-4-trifluoromethylphenol is glucuronidated by UGT. The enzymatic reactions in glucuronidation by the enzymes of each of the isoforms UGT1A1 and UGT1A6 between their normal molecules and molecules with Y486D mutation were compared, respectively.

UGT1A1 molecule = experiment: UGT activity (glucuronidation) of recombinant UGT1A1 molecules, bilirubin as substrate; format: biochemical, human; conditions: relative to normal
Text: Further, it was shown that an abnormality of drug metabolism can be assayed for more effectively by combining this detection with detection of (a) mutation(s) in the regions of exons 1 to 4 other than the exon 5 region.

| Molecule | enzyme activity relative to that of the normal enzyme (UGT1A1 [1]) | maximum velocity relative to the maximum velocity of the wild type (UGT1A1 [2]; substrate 2-amino-5-nitro-4-trifluoromethylphenol) | Km value relative to wild type (UGT1A1 [2]; with respect to 2-amino-5-nitro-4-trifluoromethylphenol) | Km value relative to wild type (UGT1A1 [2]; with respect to UDP-glucuronate) | UGT relative activity (glucronidation activity) (UGT1A1 molecule) |
| --- | --- | --- | --- | --- | --- |
| B1 | 1/13 | about 12% | about half of that of the wild type | equal to that of the wild type | 8% |
| B2 |  |  |  |  | 15% |
| B3 |  |  |  |  | 36% |
